{
  "source": "IntAct's records for PubMed 19691494",
  "parents": {"B1": {"name": "G-protein coupled receptor 15 (Pan troglodytes (Chimpanzee)), Q9BG77 (parent)", "chain": "MDPEETSVYLDYYYATSPNSDIRETHSHVPYTSVFLPVFYTAVFLTGVLGNLVLMGALHFKPGSRRLIDIFIINLAASDFIFLVTLPLWVDKEASLGLWRTGSFLCKGSSYMISVNMHCSVLLLTCMSVDRYLAIVWPVVSRKFRRTDCAYVVCASIWFISCLLGLPTLLSRELTLIDDKPYCAEKKATPIKLIWSLVALIFTFFVPLLSIVTCYCCIARKLCAHYQQSGKHNKKLKKSIKIIFIVVAAFLVSWLPFNTFKFLAIVSGLRQEHYLPSAILQLGMEVSGPLAFANSCVNPFIYYIFDSYIRRAIVHCLCPCLKNYDFGSSTETSDSHLTKALSTFIHAEDFARRRKRSVSL"}},
  "data": [
    {"variants_of": "B1", "conditions": "with 1433b_human YWHAB", "values": [
      {"variant": "MDPEETSVYLDYYYATSPNSDIRETHSHVPYTSVFLPVFYTAVFLTGVLGNLVLMGALHFKPGSRRLIDIFIINLAASDFIFLVTLPLWVDKEASLGLWRTGSFLCKGSSYMISVNMHCSVLLLTCMSVDRYLAIVWPVVSRKFRRTDCAYVVCASIWFISCLLGLPTLLSRELTLIDDKPYCAEKKATPIKLIWSLVALIFTFFVPLLSIVTCYCCIARKLCAHYQQSGKHNKKLKKSIKIIFIVVAAFLVSWLPFNTFKFLAIVSGLRQEHYLPSAILQLGMEVSGPLAFANSCVNPFIYYIFDSYIRRAIVHCLCPCLKNYDFGSSTETSDSHLTKALSTFIHAEDFARRRKRSVAL", "note": "[S359A]", "effect of a mutation on the interaction": "disrupting interaction"}
    ]}
  ]
}
